Source: patent US20060280740A1

Columns and labels:
[1] = biological target: KIR2DL1 recombinant protein (entire extracellular domain, produced in E. coli, immobilized on Biacore chip) (human) (UniProt P43626); test: SPR, KIR2DL1 chip; second Ab after first Ab EB6
[2] = biological target: KIR2DL1 recombinant protein (entire extracellular domain, produced in E. coli, immobilized on Biacore chip) (human) (UniProt P43626); test: SPR competition, KIR2DL1 chip; competitor (second Ab) 1-6 F1
[3] = biological target: KIR2DL1 recombinant protein (entire extracellular domain, produced in E. coli, immobilized on Biacore chip) (human) (UniProt P43626); test: SPR, KIR2DL1 chip; second Ab after first Ab 1-7 F9
[4] = biological target: KIR2DL1 recombinant protein (entire extracellular domain, produced in E. coli, immobilized on Biacore chip) (human) (UniProt P43626); test: SPR competition, KIR2DL1 chip; competitor (second Ab) DF200
[5] = biological target: KIR2DL1 recombinant protein (entire extracellular domain, produced in E. coli, immobilized on Biacore chip) (human) (UniProt P43626); test: SPR, KIR2DL1 chip; second Ab alone (field of first Ab 1-6 F1)
[6] = biological target: KIR2DL1 recombinant protein (entire extracellular domain, produced in E. coli, immobilized on Biacore chip) (human) (UniProt P43626); test: SPR competition, KIR2DL1 chip; competitor (second Ab) 1-7 F9
[7] = biological target: KIR2DL1 recombinant protein (entire extracellular domain, produced in E. coli, immobilized on Biacore chip) (human) (UniProt P43626); test: SPR competition, KIR2DL1 chip; competitor (second Ab) 1-4 F1
[8] = biological target: KIR2DL1 recombinant protein (entire extracellular domain, produced in E. coli, immobilized on Biacore chip) (human) (UniProt P43626); test: SPR competition, KIR2DL1 chip; competitor (second Ab) Pan2D
[9] = biological target: KIR2DL1 recombinant protein (entire extracellular domain, produced in E. coli, immobilized on Biacore chip) (human) (UniProt P43626); test: SPR, KIR2DL1 chip; second Ab after first Ab 1-6 F1
[10] = biological target: KIR2DL1 recombinant protein (entire extracellular domain, produced in E. coli, immobilized on Biacore chip) (human) (UniProt P43626); test: SPR, KIR2DL1 chip; second Ab alone (field of first Ab EB6)
[11] = biological target: KIR2DL1 recombinant protein (entire extracellular domain, produced in E. coli, immobilized on Biacore chip) (human) (UniProt P43626); test: SPR competition, KIR2DL1 chip; competitor (second Ab) EB6 (self)
[12] = biological target: KIR2DL1 recombinant protein (entire extracellular domain, produced in E. coli, immobilized on Biacore chip) (human) (UniProt P43626); test: SPR, KIR2DL1 chip; second Ab alone (field of first Ab 1-7 F9)
[13] = biological target: KIR2DL3 recombinant protein (entire extracellular domain, produced in E. coli, immobilized on Biacore chip) (human) (UniProt P43628); test: SPR competition, KIR2DL3 chip; competitor (second Ab) 1-6 F1
[14] = biological target: KIR2DL3 recombinant protein (entire extracellular domain, produced in E. coli, immobilized on Biacore chip) (human) (UniProt P43628); test: SPR, KIR2DL3 chip; second Ab alone (field of first Ab 1-6 F1)
[15] = biological target: KIR2DL3 recombinant protein (entire extracellular domain, produced in E. coli, immobilized on Biacore chip) (human) (UniProt P43628); test: SPR, KIR2DL3 chip; second Ab after first Ab 1-7 F9
[16] = biological target: KIR2DL3 recombinant protein (entire extracellular domain, produced in E. coli, immobilized on Biacore chip) (human) (UniProt P43628); test: SPR, KIR2DL3 chip; second Ab after first Ab 1-4 F1
[17] = biological target: KIR2DL3 recombinant protein (entire extracellular domain, produced in E. coli, immobilized on Biacore chip) (human) (UniProt P43628); test: SPR competition, KIR2DL3 chip; competitor (second Ab) 1-7 F9
[18] = biological target: KIR2DL3 recombinant protein (entire extracellular domain, produced in E. coli, immobilized on Biacore chip) (human) (UniProt P43628); test: SPR competition, KIR2DL3 chip; competitor (second Ab) DF200
[19] = biological target: KIR2DL3 recombinant protein (entire extracellular domain, produced in E. coli, immobilized on Biacore chip) (human) (UniProt P43628); test: SPR competition, KIR2DL3 chip; competitor (second Ab) 1-4 F1
[20] = biological target: KIR2DL3 recombinant protein (entire extracellular domain, produced in E. coli, immobilized on Biacore chip) (human) (UniProt P43628); test: SPR, KIR2DL3 chip; second Ab alone (field of first Ab 1-7 F9)
[21] = biological target: KIR2DL3 recombinant protein (entire extracellular domain, produced in E. coli, immobilized on Biacore chip) (human) (UniProt P43628); test: SPR, KIR2DL3 chip; second Ab after first Ab 1-6 F1
[22] = biological target: KIR2DL3 recombinant protein (entire extracellular domain, produced in E. coli, immobilized on Biacore chip) (human) (UniProt P43628); test: SPR competition, KIR2DL3 chip; competitor (second Ab) Pan2D
[23] = biological target: KIR2DL3 recombinant protein (entire extracellular domain, produced in E. coli, immobilized on Biacore chip) (human) (UniProt P43628); test: SPR, KIR2DL3 chip; second Ab alone (field of first Ab 1-4 F1)
[24] = biological target: KIR2DL1 recombinant protein (entire extracellular domain, produced in E. coli, immobilized on Biacore chip) (human) (UniProt P43626); test: SPR (Biacore), KIR2DL1 immobilized on CM5, soluble antibody 1x10^-7 to 4x10^-10 M
[25] = biological target: KIR2DL1 recombinant protein (entire extracellular domain, produced in E. coli, immobilized on Biacore chip) (human) (UniProt P43626); test: SPR, KIR2DL1 chip; second Ab after first Ab 1-6 F5
[26] = biological target: KIR2DL1 recombinant protein (entire extracellular domain, produced in E. coli, immobilized on Biacore chip) (human) (UniProt P43626); test: SPR, KIR2DL1 chip; second Ab alone (field of first Ab 1-6 F5)
[27] = biological target: KIR2DL3 recombinant protein (entire extracellular domain, produced in E. coli, immobilized on Biacore chip) (human) (UniProt P43628); test: SPR, KIR2DL3 chip; second Ab alone (field of first Ab 1-6 F5)
[28] = biological target: KIR2DL1(R131W)-hFc (human) (UniProt P43626); test: ELISA, KIR2DL1(R131W)-hFc against KIR2DL1-hFc, mAb at 1 µg/ml
immobilized KIR 2DS1 [29] = biological target: immobilized KIR 2DS1 (UniProt Q14954); test: SPR competition, KIR2DS1 chip; competitor (second Ab) 1-7 F9
immobilized KIR 2DS1 [30] = biological target: immobilized KIR 2DS1 (UniProt Q14954); test: SPR competition, KIR2DS1 chip; competitor (second Ab) Pan2D
[31] = biological target: KIR2DL1 recombinant protein (entire extracellular domain, produced in E. coli, immobilized on Biacore chip) (human) (UniProt P43626); test: SPR competition, KIR2DL1 chip; competitor (second Ab) 1-6 F5
[32] = biological target: KIR2DL3 recombinant protein (entire extracellular domain, produced in E. coli, immobilized on Biacore chip) (human) (UniProt P43628); test: SPR, KIR2DL3 chip; second Ab after first Ab 1-6 F5
[33] = biological target: KIR2DL3 recombinant protein (entire extracellular domain, produced in E. coli, immobilized on Biacore chip) (human) (UniProt P43628); test: SPR competition, KIR2DL3 chip; competitor (second Ab) 1-6 F5
immobilized KIR 2DS1 [34] = biological target: immobilized KIR 2DS1 (UniProt Q14954); test: SPR, KIR2DS1 chip; second Ab alone (field of first Ab 1-7 F9)
[35] = biological target: KIR2DL1 recombinant protein (entire extracellular domain, produced in E. coli, immobilized on Biacore chip) (human) (UniProt P43626); test: SPR competition, KIR2DL1 chip; competitor (second Ab) EB6
immobilized KIR 2DS1 [36] = biological target: immobilized KIR 2DS1 (UniProt Q14954); test: SPR competition, KIR2DS1 chip; competitor (second Ab) 1-4 F1
immobilized KIR 2DS1 [37] = biological target: immobilized KIR 2DS1 (UniProt Q14954); test: SPR, KIR2DS1 chip; second Ab after first Ab 1-7 F9
[38] = biological target: KIR2DL3 recombinant protein (entire extracellular domain, produced in E. coli, immobilized on Biacore chip) (human) (UniProt P43628); test: SPR competition, KIR2DL3 chip; competitor (second Ab) gl183
[39] = biological target: KIR2DL3 recombinant protein (entire extracellular domain, produced in E. coli, immobilized on Biacore chip) (human) (UniProt P43628); test: SPR (Biacore), KIR2DL3 immobilized on CM5, soluble antibody 1x10^-7 to 4x10^-10 M
immobilized KIR 2DS1 [40] = biological target: immobilized KIR 2DS1 (UniProt Q14954); test: SPR competition, KIR2DS1 chip; competitor (second Ab) DF200

KIR2DL3 recombinant protein (entire extracellular domain, produced in E. coli, immobilized on Biacore chip) (human), sequence (P43628 22-245): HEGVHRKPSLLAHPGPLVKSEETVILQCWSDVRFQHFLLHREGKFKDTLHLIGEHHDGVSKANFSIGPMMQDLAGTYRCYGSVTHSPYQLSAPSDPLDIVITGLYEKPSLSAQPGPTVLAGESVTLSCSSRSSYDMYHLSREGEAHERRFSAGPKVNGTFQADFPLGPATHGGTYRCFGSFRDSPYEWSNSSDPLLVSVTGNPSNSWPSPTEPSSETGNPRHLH
immobilized KIR 2DS1, sequence (Q14954 22-245 limits assumed): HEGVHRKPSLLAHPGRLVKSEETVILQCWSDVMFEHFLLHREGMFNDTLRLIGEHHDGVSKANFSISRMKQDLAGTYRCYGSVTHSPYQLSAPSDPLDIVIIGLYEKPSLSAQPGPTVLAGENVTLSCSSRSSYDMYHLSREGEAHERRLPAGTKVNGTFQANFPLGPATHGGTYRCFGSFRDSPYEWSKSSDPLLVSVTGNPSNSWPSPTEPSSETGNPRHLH
KIR2DL1 recombinant protein (entire extracellular domain, produced in E. coli, immobilized on Biacore chip) (human), sequence (P43626 22-245): as the sequence (Q14954 22-245 limits assumed) above, with K70T, L90V, P114L, T154P, N163D, R182H, E216K counted along it
KIR2DL1(R131W)-hFc (human), sequence (P43626 22-245 R152W): as the sequence (Q14954 22-245 limits assumed) above, with K70T, L90V, P114L, R131W, T154P, N163D, R182H, E216K counted along it

Row | % inhibition of second antibody binding [2] [%] | RU, second antibody with first antibody present [3] [RU] | % inhibition of second antibody binding [4] [%] | RU, direct binding of second antibody [5] [RU] | % inhibition of second antibody binding [6] [%] | % inhibition of second antibody binding [7] [%] | % inhibition of second antibody binding [8] [%] | RU, second antibody with first antibody present [9] [RU] | RU, direct binding of second antibody [12] [RU] | % inhibition of second antibody binding [13] [%] | RU, direct binding of second antibody [14] [RU] | RU, second antibody with first antibody present [15] [RU] | RU, second antibody with first antibody present [16] [RU] | % inhibition of second antibody binding [17] [%] | % inhibition of second antibody binding [18] [%] | % inhibition of second antibody binding [19] [%] | RU, direct binding of second antibody [20] [RU] | RU, second antibody with first antibody present [21] [RU] | % inhibition of second antibody binding [22] [%] | RU, direct binding of second antibody [23] [RU] | Substance | also measured
1 | 23 | 180 | 60 | 260 | 65 | 48 | 40 | 320 | 460 |  |  |  |  |  |  |  |  |  |  |  | EB6 (IgG1 anti KIR2DL1) (antibody) | RU, second antibody with first antibody present [1]: 200 RU; RU, direct binding of second antibody [10]: 460 RU; % inhibition of second antibody binding [11]: 57%
2 |  |  |  |  |  |  |  |  |  | 18 | 620 | 200 | 330 | 76 | 8 | 75 | 800 | 570 | 40 | 1240 | GL183 (IgG1 anti KIR2DL3) (antibody) | 
3 | 15 | 545 |  | 350 | 27 | 92 | 80 | 310 | 600 | 16 | 790 | 450 | 210 | 62 |  | 75 | 770 | 760 | 75 | 1140 | monoclonal antibody DF200 produced by hybridoma DF200 | Kd [24]: 10.9 nM; RU, second antibody with first antibody present [25]: 290 RU; RU, direct binding of second antibody [26]: 350 RU; RU, direct binding of second antibody [27]: 800 RU; reduction in binding compared to wild type [28]: 10%; % inhibition of second antibody binding (immobilized KIR 2DS1 [29]): 15%; % inhibition of second antibody binding (immobilized KIR 2DS1 [30]): 70%; % inhibition of second antibody binding [31]: 15%; RU, second antibody with first antibody present [32]: 760 RU; % inhibition of second antibody binding [33]: 4%; RU, direct binding of second antibody (immobilized KIR 2DS1 [34]): 900 RU; % inhibition of second antibody binding [35]: 90%; % inhibition of second antibody binding (immobilized KIR 2DS1 [36]): 87%; RU, second antibody with first antibody present (immobilized KIR 2DS1 [37]): 1090 RU; % inhibition of second antibody binding [38]: 20%; Kd [39]: 2 nM
4 | 12 | 534 | 90 | 475 | 2 | 95 |  | 440 | 545 | 8 | 990 | 830 | 890 | 15 | 95 | 68 | 870 | 1090 |  | 2400 | monoclonal antibody NKVSF1 | RU, second antibody with first antibody present [25]: 440 RU; RU, direct binding of second antibody [26]: 475 RU; RU, direct binding of second antibody [27]: 990 RU; reduction in binding compared to wild type [28]: 10%; % inhibition of second antibody binding (immobilized KIR 2DS1 [29]): 45%; % inhibition of second antibody binding [31]: 13%; RU, second antibody with first antibody present [32]: 950 RU; % inhibition of second antibody binding [33]: 18%; RU, direct binding of second antibody (immobilized KIR 2DS1 [34]): 1350 RU; % inhibition of second antibody binding [35]: 90%; % inhibition of second antibody binding (immobilized KIR 2DS1 [40]): 100%; % inhibition of second antibody binding (immobilized KIR 2DS1 [36]): 100%; RU, second antibody with first antibody present (immobilized KIR 2DS1 [37]): 1200 RU; % inhibition of second antibody binding [38]: 85%
